Target: recombinant ectodomain of Gc (rGc) from Hantaan virus strain 76-118 (Hantaan virus strain 76-118, UniProt P08668)
Experiment: SEC-MALS; Gc mixed with an excess of scFv A5, Tris pH 8
Settings: both partners purified

B1: scFv A5 (scFv, V domains shown)
VH: QVQLQESGPGLVKPSETLSLTCVVSGGSISSSNWWSWVRQPPGKGLEWIGEIYHSGSPNYNPSLKSRVTISVDKSKNQFSLKLSSVTAADTAVYYCARQMRQWGQGTLVTVSS
VL: SSELTQDPAVSVALGQTVRITCQGDSLRSYYASWYQQKPGQAPVLVIYGKNNRPSGIPDRFSGSSSGNTASLTITGAQAEDEADYYCNSRDSSGNHNVFGGGTKLTVL
notes: also called human single-chain variable domain antibody fragment A5
  stoichiometry N: 1

Source: article PMC5082683 (PLoS Pathogens, 2016)
